# B1: SMAC/Diablo homolog, mitochondrial: known IAP substrate (protein, UniProt Q9NR28 22-239, looked up)
# Diablo IAP-binding …: LCVPVVANFKKRCFSELIRPWHKTVTIGFGVTLCAVPIAQKSEPHSLSSEALMRRAVSLVTDSTSTFLSQTTYALIEAITEYTKAVYTLTSLYRQYTSLLGKMNSEEEDEVWQVIIGARAEMTSKHQEYLKLETTWMTAVGLSEMAAEAAYQTGADQASITARNHIQLVKLQVEEVHQLSRKAETKLAEAQIEELRQKTQEEGEERAESEQEAYLRED
# B2: Serine protease HtrA2, mitochondrial: known IAP substrate (protein, UniProt O43464 134-458, looked up)
# Serine protease HTRA2, …: AVPSPPPASPRSQYNFIADVVEKTAPAVVYIEILDRHPFLGREVPISNGSGFVVAADGLIVTNAHVVADRRRVRVRLLSGDTYEAVVTAVDPVADIATLRIQTKEPLPTLPLGRSADVRQGEFVVAMGSPFALQNTITSGIVSSAQRPARDLGLPQTNVEYIQTDAAIDFGNSGGPLVNLDGEVIGVNTMKVTAGISFAIPSDRLREFLHRGEKKNSSSGISGSQRRYIGVMMLTLSPSILAELQLREPSFPDVQHGVLIHKVILGSPAHRAGLRPGDVILAIGEQMVQNAEDVYEAVRTQSQLAVQIRRGRETLTLYVTPEVTE
# B3: 3-hydroxyacyl-CoA dehydrogenase type-2: potential cIAP1 substrate (protein, UniProt Q99714 2-261, looked up)
# 3-hydroxyacyl-CoA …: AAACRSVKGLVAVITGGASGLGLATAERLVGQGASAVLLDLPNSGGEAQAKKLGNNCVFAPADVTSEKDVQTALALAKGKFGRVDVAVNCAGIAVASKTYNLKKGQTHTLEDFQRVLDVNLMGTFNVIRLVAGEMGQNEPDQGGQRGVIINTASVAAFEGQVGQAAYSASKGGIVGMTLPIARDLAPIGIRVMTIAPGLFGTPLLTSLPEKVCNFLASQVPFPSRLGDPAEYAHLVQAIIENPFLNGEVIRLDGAIRMQP
# B4: Pre-mRNA-splicing factor SPF27: potential XIAP substrate (protein, UniProt O75934 2-225, looked up)
# Pre-mRNA-splicing factor SPF27: AGTGLVAGEVVVDALPYFDQGYEAPGVREAAAALVEEETRRYRPTKNYLSYLTAPDYSAFETDIMRNEFERLAARQPIELLSMKRYELPAPSSGQKNDITAWQECVNNSMAQLEHQAVRIENLELMSQHGCNAWKVYNENLVHMIEHAQKELQKLRKHIQDLNWQRKNMQLTAGSKLREMESNWVSLVSKNYEIERTIVQLENEIYQIKQQHGEANKENIRQDF
# Target: T1, cIAP1 (Homo sapiens, UniProt P61081+Q13490)
# T1 construct: cIAP1(ΔR) (residues 1-555); GST (N, cleaved yes); made in house; host or cells: E. coli BL21 (DE3)
# T1 sequence (Q13490+P61081 fused): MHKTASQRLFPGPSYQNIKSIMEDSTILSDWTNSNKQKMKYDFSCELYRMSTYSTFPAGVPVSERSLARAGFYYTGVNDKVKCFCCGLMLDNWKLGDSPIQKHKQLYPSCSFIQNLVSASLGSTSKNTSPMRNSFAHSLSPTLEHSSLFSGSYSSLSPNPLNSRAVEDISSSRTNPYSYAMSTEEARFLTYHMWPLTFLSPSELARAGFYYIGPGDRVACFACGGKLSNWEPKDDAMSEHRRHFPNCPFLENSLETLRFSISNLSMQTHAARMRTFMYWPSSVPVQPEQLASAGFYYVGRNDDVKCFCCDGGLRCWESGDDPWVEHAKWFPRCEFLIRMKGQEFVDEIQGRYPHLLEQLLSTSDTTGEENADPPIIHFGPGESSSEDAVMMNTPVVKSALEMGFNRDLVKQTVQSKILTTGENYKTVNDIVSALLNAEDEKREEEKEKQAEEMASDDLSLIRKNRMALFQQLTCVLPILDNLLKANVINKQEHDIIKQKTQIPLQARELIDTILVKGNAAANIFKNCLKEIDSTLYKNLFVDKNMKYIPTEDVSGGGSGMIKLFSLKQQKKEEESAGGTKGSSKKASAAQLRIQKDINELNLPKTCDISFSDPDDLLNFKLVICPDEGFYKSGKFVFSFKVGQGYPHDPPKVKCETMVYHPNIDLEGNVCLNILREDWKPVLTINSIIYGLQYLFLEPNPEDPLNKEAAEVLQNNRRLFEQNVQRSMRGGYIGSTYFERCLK
# Assay: SILAC mass spectrometry screen for cIAP1 substrates with NEDDylator^cIAP1 in apoptotic Jurkat cell lysate
# Type: biochemical
# Details: Light lysate with NEDDylator^cIAP1, Heavy lysate with Ubc12
# Experimental: Jurkat cells were grown in media containing either light or heavy isotopes of lysine and arginine and induced to undergo apoptosis with STS. Light cell extracts were incubated with the respective catalytic tagging system for each of the two IAPs and the heavy extracts labeled only with the wild-type NEDD8 E2, Ubc12. […] 100 mg ^13C6^15N2 L-Lys.2HCl and 86 mg ^13C6 L-Arg.HCl (Cambridge Isotope) were added to the same amount of medium to generate the “Heavy” medium. Jurkat cells were cultured separately in “Light” or “Heavy” medium for 7 days to allow for thorough isotope incorporation. For IAP substrate identification, 400 million cells were treated with 2 μM STS for 4 hours, harvested, lysed in M-PER mammalian protein extraction buffer (Thermo/Pierce) in the presence of protease inhibitors (100× ProteoBlock cocktail, Fermentas) and mixed with cell lysate prepared from 400 million untreated cells. […] Purified NEDDylated proteins were trypsinized and analyzed with tandem mass spectrometry (LC-MS/MS).
# (§1) For SILAC experiments, Jurkat cells were cultured separately in “Light” (supplemented with regular Lys and Arg) or “Heavy” (supplemented with ^13C6^15N2 Lys and ^13C6 Arg) medium for 7 days to allow for thorough isotope incorporation. Apoptotic “Light” and “Heavy” cell extracts were prepared individually. The lysates were cleared by spinning and then diluted in 50 mM HEPES pH 7.4, 150 mM NaCl to 5 mg/ml and supplemented with 5 mM ATP, 10 mM MgCl2. Endogenous NEDD8 E1 is cell lysate was used to catalyze the reaction. HB-NEDD8 was added to both lysate at mass ratio 1:500; the catalytic tagging system was added to the “Light” lysate at mass ratio 1:1000. Equal molar of Ubc12 was added to the “Heavy” lysate. […] NEDDylated proteins were separated by one-dimensional SDS-PAGE, and trypsinized for LC-MS/MS analysis.
# For liquid chromatography—Tandem mass spectrometry (LC-MS/MS) analysis, the tryptic peptides were first desalted and concentrated with a C18 Ziptip (Millipore). LC-MS/MS was carried out by reverse phase LC interfaced with a LTQ-Orbitrap (ThermoFisher Scientific) hybrid mass spectrometer. A nanoflow HPLC (NanoAcquity UPLC system, Waters Corporation) was equipped with a trap column (180 μm×20 mm, 5 μm SymmetryC18, from Waters) and an analytical column (100 μm×100 mm, 1.7 μm BEH130C18, from Waters). Peptides were eluted over a linear gradient from 2% solvent A (0.1% formic acid in water) to 35% solvent B (0.1% formic acid in acetonitrile) at 350 nL/min over 35 min. MS and MS/MS spectra were acquired in a data-dependent mode with MS spectra acquired in the Orbitrap at 30,000 resolving power and 6 CID MS/MS spectra acquired per MS in the LTQ linear ion trap. Dynamic exclusion was set at 90 seconds to prevent repeated MS/MS on the same precursor ion.
# The identified peptides were searched against a random decoy protein database for evaluating the false positive rates. […] The decoy peptides were removed from the data. Protein IDs were assigned only when at least two unique peptides were identified from the same protein. For SILAC experiment, Light/Heavy ratios for the identified peptides were calculated, using ProteinProspector. The media Light/Heavy ratios of all the peptides identified for each protein were used to represent the Light/Heavy ratio of the protein.
row,L/H (Light/Heavy ratio),Molecule
1,53.4,B1
2,39.2,B2
3,4.1,B3

# Target: T2, XIAP (Homo sapiens, UniProt P61081+P98170)
# T2 construct: The N-terminus (residues 1-434) of XIAP was then fused via a flexible Gly-Gly-Ser-Gly linker to the NEDD8 E2, Ubc12; GST (N, cleaved yes); made in house; host or cells: E. coli BL21 (DE3)
# T2 sequence (P98170+P61081 fused): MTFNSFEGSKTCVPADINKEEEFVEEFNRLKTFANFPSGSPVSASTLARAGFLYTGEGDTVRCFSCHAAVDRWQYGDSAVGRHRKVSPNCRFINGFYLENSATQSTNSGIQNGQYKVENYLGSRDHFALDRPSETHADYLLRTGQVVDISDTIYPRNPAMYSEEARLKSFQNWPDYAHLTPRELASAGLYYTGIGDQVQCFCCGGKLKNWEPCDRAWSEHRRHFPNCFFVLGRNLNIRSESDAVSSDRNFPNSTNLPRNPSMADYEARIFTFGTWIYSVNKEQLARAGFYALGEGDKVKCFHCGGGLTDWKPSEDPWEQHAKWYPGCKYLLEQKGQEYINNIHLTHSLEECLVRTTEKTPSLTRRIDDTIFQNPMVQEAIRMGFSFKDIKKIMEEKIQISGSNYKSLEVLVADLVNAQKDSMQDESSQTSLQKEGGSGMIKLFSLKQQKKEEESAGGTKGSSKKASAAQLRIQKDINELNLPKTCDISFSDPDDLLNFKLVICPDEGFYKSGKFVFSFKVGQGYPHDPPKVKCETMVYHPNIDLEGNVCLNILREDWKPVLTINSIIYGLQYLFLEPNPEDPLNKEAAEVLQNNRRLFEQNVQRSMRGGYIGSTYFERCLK
# Assay: SILAC mass spectrometry screen for XIAP substrates with NEDDylator^XIAP in apoptotic Jurkat cell lysate
# Type: biochemical
# Details: Heavy lysate with Ubc12
# Experimental: Jurkat cells were grown in media containing either light or heavy isotopes of lysine and arginine and induced to undergo apoptosis with STS. Light cell extracts were incubated with the respective catalytic tagging system for each of the two IAPs and the heavy extracts labeled only with the wild-type NEDD8 E2, Ubc12. 64 mg regular L-Lys and 83.6 mg L-Arg.HCl were added to 1 liter RPMI-1640 minus L-Lys and L-Arg (Thermo/Pierce), 10% fetal bovine serum (FBS) to generate “Light” medium. 100 mg ^13C6^15N2 L-Lys.2HCl and 86 mg ^13C6 L-Arg.HCl (Cambridge Isotope) were added to the same amount of medium to generate the “Heavy” medium. Jurkat cells were cultured separately in “Light” or “Heavy” medium for 7 days to allow for thorough isotope incorporation. For IAP substrate identification, 400 million cells were treated with 2 μM STS for 4 hours, harvested, lysed in M-PER mammalian protein extraction buffer (Thermo/Pierce) in the presence of protease inhibitors (100× ProteoBlock cocktail, Fermentas) and mixed with cell lysate prepared from 400 million untreated cells. The NEDDylated proteins were isolated under denaturing conditions via the HB-NEDD8 tag using a tandem affinity pull down procedure (Tagwerker et al., Mol Cell Proteomics 5:737-748 (2006)) (FIG. 11). Purified NEDDylated proteins were trypsinized and analyzed with tandem mass spectrometry (LC-MS/MS).
# as §1
# For liquid chromatography—Tandem mass spectrometry (LC-MS/MS) analysis, the tryptic peptides were first desalted and concentrated with a C18 Ziptip (Millipore). LC-MS/MS was carried out by reverse phase LC interfaced with a LTQ-Orbitrap (ThermoFisher Scientific) hybrid mass spectrometer. A nanoflow HPLC (NanoAcquity UPLC system, Waters Corporation) was equipped with a trap column (180 μm×20 mm, 5 μm SymmetryC18, from Waters) and an analytical column (100 μm×100 mm, 1.7 μm BEH130C18, from Waters). […]
row,L/H (Light/Heavy ratio),Molecule
1,7.39,B1
2,21.4,B2
3,4.35,B4

# — patent US20150010525A1, “Catalytic Tagging System to Study Macro-Molecular Interactions Using Engineered Ubiquitin Ligase and Ubiquitin-Like Proteins to Facilitate Substrate Identification” (THE REGENTS OF THE UNIVERSITY OF CALIFORNIA, priority 2012, published 2015)
